Measured values reported in patent US20260152527A1 (SIGHTSTREAM BIOTHERAPEUTICS, published 2026).
Starred links: 1 amine or outer side, 2 acyl side, 3 side chain; linkers in the order of their positions; H or OH if unused. Positions of bridges follow the written chain, without caps; N, C: chain ends. Non-standard residues stand in square brackets, D forms with d. NMeW = CN[C@@H](Cc1c[nH]c2ccccc12)C(=O)O; Lys(N3) = [N-]=[N+]=NCCCC[C@H](N)C(=O)O; Phe(4-NH2) = Nc1ccc(C[C@H](N)C(=O)O)cc1; mXylylene = c1cc(C[*:1])cc(C[*:2])c1; NMeH = CN[C@@H](Cc1c[nH]cn1)C(=O)O; NMeR = CN[C@@H](CCCNC(=N)N)C(=O)O; dNMeF = CN[C@H](Cc1ccccc1)C(=O)O; R5 = C=CCCC[C@@](C)(N)C(=O)O; S5 = C=CCCC[C@](C)(N)C(=O)O; Nle = CCCC[C@H](N)C(=O)O; Pra = C#CC[C@H](N)C(=O)O

B1: KR-035 (peptide)
peptide: Ac-[Nle]EHFRWGK-NH2
SMILES: CCCC[C@H](NC(C)=O)C(=O)N[C@@H](CCC(=O)O)C(=O)N[C@@H](Cc1c[nH]cn1)C(=O)N[C@@H](Cc1ccccc1)C(=O)N[C@@H](CCCNC(=N)N)C(=O)N[C@@H](Cc1c[nH]c2ccccc12)C(=O)NCC(=O)N[C@@H](CCCCN)C(N)=O
B2: KR-036 (peptide)
peptide: Ac-[Nle]EHFRWGKC-NH2
modifications: not fully specified (bridges); printed as -Cyclo(-Ac-Nle-Glu-His-Phe-Arg-Trp-Gly-Lys-Cys)-NH2; also: cyclo(...) including Ac, ring type and places not given here
B3: KR-038 (peptide)
peptide: Ac-[Nle][R5]H[dF]RW[S5]-NH2
modifications: staple 2-7
SMILES: CCCC[C@H](NC(C)=O)C(=O)N[C@]1(C)CCCC=CCCC[C@@](C)(C(N)=O)NC(=O)[C@H](Cc2c[nH]c3ccccc23)NC(=O)[C@H](CCCNC(=N)N)NC(=O)[C@@H](Cc2ccccc2)NC(=O)[C@H](Cc2c[nH]cn2)NC1=O

Each binder was assayed against human recombinant MC1R (CHO-K1 stable cell line, GenScript) (human, UniProt Q01726 1-317) (assay: cell-based or functional assay).
Chain of human recombinant MC1R (CHO-K1 stable cell line, GenScript) (Q01726 whole entry): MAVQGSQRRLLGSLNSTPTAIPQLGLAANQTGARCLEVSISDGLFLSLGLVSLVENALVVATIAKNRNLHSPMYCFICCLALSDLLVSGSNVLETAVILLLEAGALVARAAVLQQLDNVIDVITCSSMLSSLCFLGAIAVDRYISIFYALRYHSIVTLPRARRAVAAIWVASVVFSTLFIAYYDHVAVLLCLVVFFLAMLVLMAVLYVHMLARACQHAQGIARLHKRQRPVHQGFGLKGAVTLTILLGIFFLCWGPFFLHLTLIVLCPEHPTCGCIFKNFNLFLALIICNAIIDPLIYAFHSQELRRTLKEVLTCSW

MC1R IC50	Binder
0.061 nM	Ac-YSMEHFRWGKPV-NH2 [KR-001]
0.13 nM	Ac-MEHFRWGKPV-NH2 [KR-003]
0.36 nM	B1
0.88 nM	B2
0.024 nM	Ac-[Nle][Lys(N3)]H[dF]RW[Pra]K-NH2 (triazole 2-7) [KR-037]
> 50 nM	B3
1.95 nM	Ac-[Nle][S5]H[dF]RW[S5]-NH2 (staple 2-7) [KR-039]
1.15 nM	Ac-EHFRWGKPV-NH2 [KR-004]
0.124 nM	Ac-[Nle]CH[dF]RWC-NH2 (linker 2-7 via mXylylene) [KR-040]
0.04 nM	XXHFRWX (Ac-Nle-[Dab-His-DPhe-Arg-Trp-Dab] Linker: succinic acid-NH2) [KR-041]
0.16 nM	XXHFRWX (Ac-Nle-[Dab(N3)-His-DPhe-Arg-Trp-Dab(N3)] linkr: 3,3′-Oxybis[1-propyne]-NH2) [KR-042]
0.15 nM	Ac-[Nle][Lys(N3)][NMeH][dF]RW[Pra]-NH2 (triazole 2-7) [KR-043]
> 50 nM	Ac-[Nle][Lys(N3)]H[dNMeF]RW[Pra]-NH2 (triazole 2-7) [KR-044]
0.48 nM	Ac-[Nle][Lys(N3)]H[dF][NMeR]W[Pra]-NH2 (triazole 2-7) [KR-045]
0.28 nM	Ac-[Nle][Lys(N3)]H[dF]R[NMeW][Pra]-NH2 (triazole 2-7) [KR-046]
> 50 nM	Ac-[Nle][Lys(N3)][Phe(4-NH2)][dF]RW[Pra]-NH2 (triazole 2-7) [KR-047]

Each binder was assayed against human recombinant MC3R (CHO-K1/Gα15 stable cell line, GenScript) (human, UniProt P41968 1-323) (assay: cell-based or functional assay).
Chain of human recombinant MC3R (CHO-K1/Gα15 stable cell line, GenScript) (P41968 whole entry): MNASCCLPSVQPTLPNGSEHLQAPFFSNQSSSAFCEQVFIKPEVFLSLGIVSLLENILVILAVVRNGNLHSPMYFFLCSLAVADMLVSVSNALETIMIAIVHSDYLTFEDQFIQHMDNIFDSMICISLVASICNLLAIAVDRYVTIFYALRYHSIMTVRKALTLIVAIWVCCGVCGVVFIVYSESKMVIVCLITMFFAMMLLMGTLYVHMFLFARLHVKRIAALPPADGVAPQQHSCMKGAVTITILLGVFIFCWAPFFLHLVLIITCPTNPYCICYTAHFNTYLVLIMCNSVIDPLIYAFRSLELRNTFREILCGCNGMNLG

MC3R IC50	Binder
199 nM	Ac-YSMEHFRWGKPV-NH2 [KR-001]
289 nM	Ac-MEHFRWGKPV-NH2 [KR-003]
276 nM	B1
328 nM	B2
62.9 nM	Ac-[Nle][Lys(N3)]H[dF]RW[Pra]K-NH2 (triazole 2-7) [KR-037]
20000 nM	B3
426 nM	Ac-[Nle][S5]H[dF]RW[S5]-NH2 (staple 2-7) [KR-039]
937 nM	Ac-EHFRWGKPV-NH2 [KR-004]
24.1 nM	XXHFRWX (Ac-Nle-[Dab-His-DPhe-Arg-Trp-Dab] Linker: succinic acid-NH2) [KR-041]
225 nM	XXHFRWX (Ac-Nle-[Dab(N3)-His-DPhe-Arg-Trp-Dab(N3)] linkr: 3,3′-Oxybis[1-propyne]-NH2) [KR-042]
61.6 nM	Ac-[Nle][Lys(N3)][NMeH][dF]RW[Pra]-NH2 (triazole 2-7) [KR-043]
> 50000 nM	Ac-[Nle][Lys(N3)]H[dNMeF]RW[Pra]-NH2 (triazole 2-7) [KR-044]
> 50000 nM	Ac-[Nle][Lys(N3)]H[dF][NMeR]W[Pra]-NH2 (triazole 2-7) [KR-045]
98.8 nM	Ac-[Nle][Lys(N3)]H[dF]R[NMeW][Pra]-NH2 (triazole 2-7) [KR-046]
80.9 nM	Ac-[Nle][Lys(N3)][Phe(4-NH2)][dF]RW[Pra]-NH2 (triazole 2-7) [KR-047]

Each binder was assayed against human recombinant MC4R (CHO-K1/Gα15 stable cell line, GenScript) (human, UniProt P32245 1-332) (assay: cell-based or functional assay).
Chain of human recombinant MC4R (CHO-K1/Gα15 stable cell line, GenScript) (P32245 whole entry): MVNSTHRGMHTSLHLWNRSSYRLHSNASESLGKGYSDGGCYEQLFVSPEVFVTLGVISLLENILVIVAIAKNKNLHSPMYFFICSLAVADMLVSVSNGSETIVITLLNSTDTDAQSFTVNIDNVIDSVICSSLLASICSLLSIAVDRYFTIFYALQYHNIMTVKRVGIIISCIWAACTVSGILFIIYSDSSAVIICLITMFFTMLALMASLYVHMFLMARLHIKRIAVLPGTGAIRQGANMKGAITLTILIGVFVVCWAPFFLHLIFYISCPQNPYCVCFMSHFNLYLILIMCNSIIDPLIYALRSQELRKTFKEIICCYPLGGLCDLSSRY

MC4R IC50	Binder
87.6 nM	Ac-YSMEHFRWGKPV-NH2 [KR-001]
40.5 nM	Ac-MEHFRWGKPV-NH2 [KR-003]
59.6 nM	B1
40.6 nM	B2
35 nM	Ac-[Nle][Lys(N3)]H[dF]RW[Pra]K-NH2 (triazole 2-7) [KR-037]
74 nM	B3
35.4 nM	Ac-[Nle][S5]H[dF]RW[S5]-NH2 (staple 2-7) [KR-039]
34.2 nM	Ac-EHFRWGKPV-NH2 [KR-004]
13.8 nM	XXHFRWX (Ac-Nle-[Dab-His-DPhe-Arg-Trp-Dab] Linker: succinic acid-NH2) [KR-041]
109 nM	XXHFRWX (Ac-Nle-[Dab(N3)-His-DPhe-Arg-Trp-Dab(N3)] linkr: 3,3′-Oxybis[1-propyne]-NH2) [KR-042]
31.4 nM	Ac-[Nle][Lys(N3)][NMeH][dF]RW[Pra]-NH2 (triazole 2-7) [KR-043]
238 nM	Ac-[Nle][Lys(N3)]H[dNMeF]RW[Pra]-NH2 (triazole 2-7) [KR-044]
40.3 nM	Ac-[Nle][Lys(N3)]H[dF][NMeR]W[Pra]-NH2 (triazole 2-7) [KR-045]
39.3 nM	Ac-[Nle][Lys(N3)]H[dF]R[NMeW][Pra]-NH2 (triazole 2-7) [KR-046]
17.9 nM	Ac-[Nle][Lys(N3)][Phe(4-NH2)][dF]RW[Pra]-NH2 (triazole 2-7) [KR-047]

The binders below were run against human recombinant MC5R (CHO-K1/Ga15 stable cell line, GenScript) (human, UniProt P33032 1-325) (assay: cell-based or functional assay).
Chain of human recombinant MC5R (CHO-K1/Ga15 stable cell line, GenScript) (P33032 whole entry): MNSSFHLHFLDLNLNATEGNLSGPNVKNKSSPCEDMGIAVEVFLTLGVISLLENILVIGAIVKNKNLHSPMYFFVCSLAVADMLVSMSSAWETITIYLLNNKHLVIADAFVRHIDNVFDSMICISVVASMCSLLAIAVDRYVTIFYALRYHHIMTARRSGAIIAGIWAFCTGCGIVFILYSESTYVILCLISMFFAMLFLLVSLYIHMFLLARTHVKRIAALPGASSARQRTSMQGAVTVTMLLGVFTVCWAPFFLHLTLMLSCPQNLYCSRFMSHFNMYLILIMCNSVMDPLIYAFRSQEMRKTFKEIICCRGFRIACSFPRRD

MC5R IC50	Binder
84.4 nM	Ac-YSMEHFRWGKPV-NH2 [KR-001]
315 nM	Ac-MEHFRWGKPV-NH2 [KR-003]
404 nM	B1
289 nM	B2
106 nM	Ac-[Nle][Lys(N3)]H[dF]RW[Pra]K-NH2 (triazole 2-7) [KR-037]
5090 nM	B3
739 nM	Ac-[Nle][S5]H[dF]RW[S5]-NH2 (staple 2-7) [KR-039]
> 10000 nM	Ac-EHFRWGKPV-NH2 [KR-004]
257 nM	Ac-[Nle]CH[dF]RWC-NH2 (linker 2-7 via mXylylene) [KR-040]
44.3 nM	XXHFRWX (Ac-Nle-[Dab-His-DPhe-Arg-Trp-Dab] Linker: succinic acid-NH2) [KR-041]
237 nM	XXHFRWX (Ac-Nle-[Dab(N3)-His-DPhe-Arg-Trp-Dab(N3)] linkr: 3,3′-Oxybis[1-propyne]-NH2) [KR-042]
86 nM	Ac-[Nle][Lys(N3)][NMeH][dF]RW[Pra]-NH2 (triazole 2-7) [KR-043]
2300 nM	Ac-[Nle][Lys(N3)]H[dNMeF]RW[Pra]-NH2 (triazole 2-7) [KR-044]
191 nM	Ac-[Nle][Lys(N3)]H[dF][NMeR]W[Pra]-NH2 (triazole 2-7) [KR-045]
94.8 nM	Ac-[Nle][Lys(N3)]H[dF]R[NMeW][Pra]-NH2 (triazole 2-7) [KR-046]
41.9 nM	Ac-[Nle][Lys(N3)][Phe(4-NH2)][dF]RW[Pra]-NH2 (triazole 2-7) [KR-047]
